# Data from the DeepSol protein solubility set.
# Test: soluble on expression in E. coli; label from the status in PepcDB or PDB records
row,Sequence,soluble on expression in E. coli
1,MARSIDYGNLMHRAMRGLIQSVLEDVAEHGLPGAHHFFITFDTTHPDVAMADWLRARYPQEMTVVIQHWYENLSADDHGFSVTLNFGNQPEPLVIPFDAVRTFVDPSVEFGLRFETHEEDEEEETGGDEDPDGDDEPPRHDAQVVSLDKFRKAAALEHHHHHH,soluble
2,HPSIFAATDGHSSRLDVTMGMSYNNRFFASLMYRPTQAVGVSLGMQLGKFYAGYAFEWPTSVLAKASWGSHELLVSYSFPLSNTKNRDAKYKSIRFL,not soluble
3,MSLATSAFCAISSAALADGGQTKLPLLELPGIEDRDYWVPGEVNVEGKLEAMQAVVGAKAVPFAGTQAEPIQIAMIYPSADTSDFWARNYIAMTKRLEELGIQFETTEFASRQIEHSLQSTYANQVVQDADLYDFVIFGPSELAIQADNIDKMAASEGFSTFVWAFHTPLKDLKNQPDGWFDFSSAAGALTMCDYMLGRLGNDVTMAMNRGIPGITDDQRSGDFKACVEEKGNWTTIYEHYGEYQREGGFEGTSLILQAYPEATVIHNANTAMAMGSVEAQISVGKEKEVFSTGWGGTGLELDAIRRGELDATPMRMGDDVGAATAEAIKAHLEGRSDELPFVFLGRITVAHDQMSAEEIDALEAEAFRFSGVGALEREGHHHHHH,soluble
4,MNLDLQKVLPAEAFETEQNEGDYIGKDGLLYCGVCRTKKQTRLPASDFTGGREIIVPCICKCKVEENKRKEEEEKKRQEMQRLERLKASSLMDAKLKAARLDGYQVDGDNQKIYNLAGNYVKRFDEMYEKRQGLLFWGTVGTGKSYTAACIANELLNQMIPVVMTSFVKILQNIQGNPDEEERIMAGLNAAKLLIIDDLGAERSTDYALEKVYNIIDSRYLSGKPLILTTNMTLKDMQESEDIRYRRIYDRIFEMCFPVRFAGRSWREKAASKRFDAMKNLMEE,not soluble
5,MGSDKIHHHHHHMDSSRSDPMRLMIFGAGYSGKAIGQHFIQQGIPVSGTTRSPAKAKALSDLGIEPLVFDGQRLSDEIIQAMACATHVVQSIAPGSDGDPLLRLTQGALKTWMPKVQWLAYLSTVGVYGDHQGAWVDEDTVCKPVSVRSKERVEAEQAWGRAALAAGVPLSTLRLSGIYGPGRNGLVNMAEGTARRLVKKDQVFNRIRVEDIAAATWFLAGRNEQGIFNITDHEPAPPQDVVAEAARLMEVEPPPEQAFETAELSPMARSFYGENKRVMNAKVRALGFAFAYPDYRVSLSQLWSSGRWRG,not soluble
6,MGSDKIHHHHHHDNAGRVVEITSAPERVVSLSPAATRFLVFLGLEDKIVGVTDYDSYEAEKVGAMVPVNIEKVVSLNPDLVLMFGGFQLPEVPKLEKAGLKVLVVNPNSLNDIIRDVVLLGTIFDRRDLALEKSEKLREKMLEIGKKTYNVPPSKRPKVLYLISSPGPDVKEIWTCGMGSYLNEIISLAGGVNIASGIAGPNGWPQLSIEYVVSQNPDVIIVGVYIPGTENEEIKKILNFEPFKEINAVKNKRVFAVDGNVASQPSPDVFELLDLFYEFFYGGKGE,not soluble
7,MIKDQDAEFHVTDSDPTWAETNFFGFFNAEHKLNVGVYALFRPNLGVVSSTICMNSGRAVTPWEADFCDLRSAMPIPTPRSLLDYKLLNTLHVHCLDPNRVWHIGYDDQQGTRIDVRYEALMPAFDIHDPEMDPMCGSESEAGKFAWGTAYDGHFDQTGHFKGSVAIRGREVPIDCVSTMDHSWGARPERGKPNMSWLHAHFSKDLAVHGIFGFDQTRNGVELWLAHGYVMERGRIVGLKAGTGQVERPQERYPEQLQLQVTDAKDRVWKLRGRALTTFPWQCWPNMISFNSLCAWEMNGLKGHGEVQDFFELPQLNALNSVESTRRPSRPL,not soluble
8,MAKKPSKKKVKRQVASGRAYIHASYNNTIVTITDPDGNPITWSSGGVIGYKGSRKGTPYAAQLAALDAAKKAMAYGMQSVDVIVRGTGAGREQAIRALQASGLQVKSIVDDTPVPHNGCRPKKKFRKAS,soluble
9,TVVVSEAGASVYSASEFAANEFPNLDVSLRGAVSIARRLQDPLAELVKIEPKAIGVGQYQHDVNQTQLARKLDAVVEDCVNAVGVDLNTASAPLLARVAGMTKTLAQNIVEYRDENGRFESRSELKKVPRLGPKAFEQCAGFMRIANGKNPLDASGVHPEAYPVVEKILQATAQSIQDLMSNAGVVRQLDAKQFI,not soluble
10,MIPAEIAKTAFKSLLPVLERGVVAADRAFSGYIQPRRLRGKLLLQPYVGWGTPREVELTGRVLLPRALAPARKGDPRWRNFHNIVRRLFSREVGGVRVAGTLSDQTVSAVSDSDGYFTLHFTFPRPIAAGWHEVRLQMEDRQEDAARARVQVVGKARFGIISDLDDTVIQSDVTSLPRMLMTSLTGNARTRSPFPGVGALYRALTREGEARNPIFYVSSSPWNFFDLLWQFLDYRRIPLGPLFLRNWGMDLLGGHGGYKHGVIERIFHRYPNLNFVLVGDSGEKDPEIYAEVVRRFPGRVLAVYIRDVTGAERDEGVLRLREEIRKAGADLVLASDSLSAAGHALALGLITPGEYRSVLTSVARTYETLEHHHHHH,soluble
11,MSKFPVPLRTIGGLRPSTTAAISAANIGFTQSSRALSTGAAAKSSGLVGQVARQYPNAAAFSIKQVRLYSSGNLPKHNRVALPALSPTMELGTVVSWQKKEGDQLSEGDLLCEIETDKATMGFETPEEGYLAKILIQEGSKDVPIGKLLCIIVDNEADVAAFKDFKDDGASSGGSAPAAEKAPEPAKPAASSQPSPPAQMYQAPSVPKSAPIPHSSSGRVSASPFAKKLAAENGLDLSGVSGSGPGGRILASDLSQAPAKGATSTTTQAVSGQDYTDIPLSNMRKTIAKRLTESKSTIPHYYLTSEIQLDTLLQVREKLNGLLAKGTSGQATKISINDFIIKASALACQRVPEANSYWMDSFIRENHHVDVSVAVSTPAGLITPIIFNAHAKGLATIASEIVELAQRAREGKLQPHEFQGGTFTVSNLGMFGSVSDFTAIINPPQSCILAIGGASDKLVPDEAEGYKKIKTMKVTLSCDHRTVDGAVGAVWLRHFKEFLEKPHTMLL,not soluble
12,MSLKYNNCVIGSRSVFPPRGLQETNIGIVHISDINHYYTLNLSRKIENHLSKLTGAGTGDSVEDSMFLATMEAYERLANSIPVSQQVIASQEELGDLAVPLSDFPKMNQSETSSNGIEKKYLRWSESYNLTDQSRCYIPQVYINLYTHFNYNGEGLTHPISTGCAIHQDYTRAVINGIYEVIERDGIALFWLLKRPLKKLDKQEFIDDLEIFSSPFLGKTTLYDASTINGVYTFCLRAETHFSESIRNVVMFSSNTCPKEAISKLKKELISVIYSLANGIEKQSNLLKQDPMSFYHVDEGALYMAHPSKAYAFEFLNNSSKGSIPTNEIQFSSYGEELRYLIKKLEGLGHKVYVTNLSNRECEENQLKAVKVTIPSLQPISFVHSAREGHHHHHH,not soluble
13,MGSDKIHHHHHHMVVKIGLLGFGTVASGVPFLLEENQEKIEKAAHDSIEVAKVLVKDEAEKDRLLAAGHDYHFVTNIDDILADEDIAIVVELMGRIEPAKTFITHALEAGKHIVTANKDLLAVHGSELRALAEEKGLALYYEAAVAGGIPILRTLVNSLAADKVTRILGVLNGTSNFMLTKMVDEGWTYEKALQTAQELGYAESDPTNDVEGIDAAYKAVILSQFAFGMTVDFEHVAHKGISNITPEDVAVAQELGYVIKLVGDIQETTSGIAAEVSPTFLPKNHPLASVNGVMNAVFVESIGIGQSMYYGPGAGQKPTATSVMADIIRIVRRLKDNTIGKAFNEYSRSLQLAAPSDVKSEYYFSIDAPDKNGKMLRLAEIFNSEEISFKQILQQAADGETARLVIVTHEMSKTQLENVTDKLSKETDFTVLNTFKVLGE,not soluble
14,GPGSMNCDQSPEAPCIVYICKLIDTQYLVGRVVGSVENHDGAFIGFGRVYSGRLRAGQPVYVHSDGVVVEATVGSVYLFRGAGLEETSEVSAGFLCGVGGLTPCITKYATISSVPNMPPFKPLVLQSTSIVRLSVFPKDPRSLQELERGLRLLYKVDPQVEVSMLPTGEHVIGTAGEVHAERCLKDLIDTFAQVEVVASEPLVSFRETIVSNLSAKPKPHTASLMDGAFHVTLQARPLPAEVLELIKDDGKNSGNNPQLLRQAVAALAEHRRFSADVKNGVVSSGPSRLGFLGAVLLANFDGTADPVACWATLQDWKESVVAGFQAACESGPMAQEPLYGVAFVVTNIFVDADSDISGGMVLPSVREACRAAMKLHPRRLVEPVYECTVYSSGFTQGKIYASLSRRRSEIVEEVPNEGSDLFYIRCWLPAVEAFGLQDELRVQTQGASTAQLQMSHWEVIDADPYFVPTTKEEFEEHGAEVATKNIAEQLLERIMRRKGLYRERVVENAEKQKFSLKGA,not soluble
